From patent publication US20240182864A1, “NOVEL CHEMICAL COMBINATIONS AND METHODS OF USE THEREOF, TOWARDS DIFFERENTIATION OF HUMAN PROGENITOR CELLS INTO FUNCTIONAL BETA CELLS” (Salk Institute for Biological Studies, priority 2021, published 2024)

Test system: H1 hESCs
Assay: Generation of pancreatic progenitors (stages 1-4) and PP 3D clusters, flow cytometry for PDX1/NKX6.1
Format: cell-based, human
Experimental: hESCs were maintained as feeder-free in mTeSR™1 (STEMCELL Technologies Inc.) according to the manufacturer's instructions. Before differentiation, adherent hESCs (at ˜90% confluence) were rinsed with PBS and then incubated with Accutase (Millipore) for 6-8 min at 37° C. Dissociated single cells were rinsed twice with DMEM/F12 and spun at 300 g for 3 min. The resulting cells were re-suspended in mTeSR™1 which was supplied with 10μM Y27632 (Sigma-Aldrich), and seeded on 1:30 diluted Matrigel (BD Biosciences)-coated dishes at a density of 55,000 cells/cm^2. The next day, the medium was exchanged for mTeSR™MI and maintained for one more day prior to differentiation initiation.
Stage 1: Definitive Endoderm (3 days). […] Each 800 ml MS12 medium was made with 744 ml MCDB131 medium (ThermoFisher), 3.2 ml 45% glucose (Sigma), 20 ml 20% fat-acid free BSA, and 16 ml 7.5% sodium bicarbonate (Gibco).
Stage 2: Posterior Foregut (3 days): after PBS rinse, cells are exposed to MS12 medium with KGF (Peprotech, 50 ng/ml), B27 (Gibco, 100×), Vitamin C (Vc, 0.25 mM, sigma) and dorsomorphin (0.75 μM). Cells were fed with fresh medium daily.
Stage 3: Pancreatic endoderm (3 days): After PBS rinse, cells were exposed to DMEM with B27 (100×), retinoic acid (RA, 2 μM, Sigma), Noggin (100 ng/ml, Peprotech), SANTI (0.25 μM, sigma), Vitamin C (Vc, 0.25 mM, sigma), Pen/Strep (100×, Gibco) and Glutamax (100×, Gibco). Cells were fed with fresh medium every other day.
Stage 4: Pancreatic progenitor (3-4 days): After PBS rinse, cells were exposed to DMEM with B27 (100×), EGF (100 ng/ml, Peprotech)+Nicotinamide (NICO, 10 mM; Sigma)+Noggin (100ng/ml)+Vc (0.25 mM). Cells were fed with fresh medium every other day.
V-bottom plate based aggregation: stage-4 cells were rinsed with PBS and then incubated with Accutase (Millipore) for 10-15 min at 37° C. Dissociated single cells were rinsed twice with DMEM/F12 and spun at 300 g for 3 min. The resulting cells were re-suspended in an aggregation medium supplied with 10μM Y27632 (Sigma-Aldrich). Cell solution with 0.1-0.4 (according to experimental design) million cells was added into each well of V-bottom 96-well plate, followed by a spun at 300 g for 3 min. The plate was put into 37° C. incubator for 8-12 hours to form clusters. Aggregation medium was made of V4b-Medium+heparin (Sigma, H3149, 10 μg/ml)+ZnSO4 (10 μM, sigma, Z0251)+LDN193189 (LDN, Tocris, 100 nM)+T3 (1 μM, Sigma, T6397)+RA ([…])+SANTI (0.25 μM: Tocris)+GABA (1 mM, Sigma)+human EGF (100 ng/ml, Peprotech)+NICO (10 mM)+VC (0.25 mM). V4b-Medium (800 ml) was made of 360 ml MCDB 131 medium+180 ml F12 medium+180 ml KO-DMEM medium+3.9 ml Glucose (45%, Sigma)+80ml 20% FF-BSA+16 ml Sodium Bicarbonate (7.5%)+4 ml ITX+8 ml Pen/Strep+8ml Glutamax: all items were purchased from Thermo Fisher Scientific unless otherwise indicated.
Single-cell suspension from cell cultures: Differentiated hESC cultures were rinsed with PBS and then incubated with 0.25% trypsin-EDTA (Life Technologies) at 37° C. for 1-3 minutes. The trypsin was neutralized with MEF medium. The dissociated cells were rinsed twice in PBS or DMEM/F12 medium for further analysis. For intracellular antibody staining, single cells were fixed in 200 μL of BD Cytofix/Cytoperm Buffer (BD Biosciences) at 4° C. for 20 minutes followed by three washes in BD Perm/Wash Buffer. Fixed cells were incubated in 150 μL of primary antibody buffer at 4° C. for 1 hour, followed by 30 minutes in a secondary antibody (if there is a secondary antibody) buffer after being rinsed twice in Perm/Wash Buffer. Stained cells were washed twice in Perm/Wash Buffer prior to analyses. The acquired data were analyzed by FlowJo.
Efficient generation of PP 3D-clusters is responsible for generating functional βcells. An hPSC reporter line with NKX6.1-NLS-GFP has been generated by homologous recombination (FIG. 1A and data not shown), which aids in the study of functional β cell production protocols. […]

[1] = Constant high-dose of Activin-A (115-115-115 ng/ml day 1-day 2-day 3)
[2] = Constant low-dose of Activin-A (100-100-100 ng/ml day 1-day 2-day 3)
[3] = Decreasing gradient dose of Activin-A (115-110-100 ng/ml day 1-day 2-day 3)

B1: Activin-A: a TGFβ family member used at stage 1 (protein, UniProt P08476 311-426, looked up)
Inhibin beta A chain: GLECDGKVNICCKKQFFVSFKDIGWNDWIIAPSGYHANYCEGECPSHIAGTSGSSLSFHSTVINHYRMRGHSPFANLKSCCVPTKLRPMSMLYYDDGQNIIKKDIQNMIVEECGCS
modifications: Inhibin beta A chain
**Q.** Which results are given for B1?
**A.** NKX6.1-positve cells [1]: ~20%-50%; PDX1-positve cells [1]: ~90%; PDX1-postive/NKX6.1-positve cells [1]: ~20%-50%; NKX6.1-positve cells [2]: ~15%-50%; PDX1-positve cells [2]: ~50%-80%; PDX1-postive/NKX6.1-positve cells [2]: ~15%-50%; NKX6.1-positve cells [3]: ~80%; PDX1-positve cells [3]: ~93%; PDX1-postive/NKX6.1-positve cells [3]: ~80%; cell density and cell heterogeneity at stage 4 (constant low-dose Activin-A): appropriate cell density but resulting in high cell heterogeneity at stage 4; cell proliferation and cell density (high-dose Activin-A): severely reduced cell proliferation and resulted in suboptimal cell density
